Results: paper PMC9734117, “Selective posttranslational inhibition of CaVβ1-associated voltage-dependent calcium channels with a functionalized nanobody” (Nature Communications, 2022)

Key:
Conditions in all cases: partners not purified
[1] = molecular target: Cerulean-CaVβ2 ( (human or rat cDNA cloned), UniProt Q08289); assay: FRET or BRET; flow cytometry FRET (flow-FRET) in live HEK293 cells co-transfected with Venus-nanobody and Cerulean-CaVβ; FRET efficiency against free nanobody fitted with a 1:1 binding model; effective dissociation constant (Kd,EFF); cycloheximide 100 μM 2 h before
Cerulean-CaVβ2, sequence (Q08289 whole entry): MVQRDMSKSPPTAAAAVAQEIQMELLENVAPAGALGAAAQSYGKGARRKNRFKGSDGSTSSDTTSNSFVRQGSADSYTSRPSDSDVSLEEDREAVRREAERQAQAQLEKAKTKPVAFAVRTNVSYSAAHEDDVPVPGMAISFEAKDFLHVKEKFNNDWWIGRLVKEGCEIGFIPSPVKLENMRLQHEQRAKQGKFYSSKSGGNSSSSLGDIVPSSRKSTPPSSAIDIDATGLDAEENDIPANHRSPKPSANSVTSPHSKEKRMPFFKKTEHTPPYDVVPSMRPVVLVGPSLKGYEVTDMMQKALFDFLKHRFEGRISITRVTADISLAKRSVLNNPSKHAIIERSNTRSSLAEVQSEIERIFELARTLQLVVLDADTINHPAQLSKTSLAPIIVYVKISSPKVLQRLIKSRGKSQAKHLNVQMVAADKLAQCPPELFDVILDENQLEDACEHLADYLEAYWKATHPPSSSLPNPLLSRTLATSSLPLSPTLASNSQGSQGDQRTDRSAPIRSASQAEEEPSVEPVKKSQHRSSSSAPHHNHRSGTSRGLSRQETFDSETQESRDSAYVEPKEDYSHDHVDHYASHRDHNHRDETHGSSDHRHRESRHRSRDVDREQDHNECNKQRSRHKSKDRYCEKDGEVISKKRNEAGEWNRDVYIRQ

[2] = molecular target: Cerulean-CaVβ4 ( (human or rat cDNA cloned), UniProt O00305); assay: as above
[3] = molecular target: Cerulean-CaVβ3 ( (human or rat cDNA cloned), UniProt P54284); assay: as above
Cerulean-CaVβ3, sequence (P54284 whole entry): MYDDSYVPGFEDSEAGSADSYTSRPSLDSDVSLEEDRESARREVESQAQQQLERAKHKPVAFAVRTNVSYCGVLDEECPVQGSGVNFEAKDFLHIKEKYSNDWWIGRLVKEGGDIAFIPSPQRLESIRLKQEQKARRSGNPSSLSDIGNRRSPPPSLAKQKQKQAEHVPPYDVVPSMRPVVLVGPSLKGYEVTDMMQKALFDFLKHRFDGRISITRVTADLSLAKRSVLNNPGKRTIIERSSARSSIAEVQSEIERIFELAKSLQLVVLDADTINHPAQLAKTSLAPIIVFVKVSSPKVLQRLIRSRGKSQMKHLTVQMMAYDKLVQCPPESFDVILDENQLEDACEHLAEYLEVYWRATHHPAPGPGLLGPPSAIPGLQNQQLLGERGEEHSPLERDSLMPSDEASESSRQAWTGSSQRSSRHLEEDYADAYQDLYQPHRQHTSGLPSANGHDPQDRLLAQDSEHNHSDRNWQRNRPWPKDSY

[4] = molecular target: Cerulean-CaVβ1 ( (human or rat cDNA cloned), UniProt Q02641-1); assay: as above
Cerulean-CaVβ1, sequence (Q02641 whole entry): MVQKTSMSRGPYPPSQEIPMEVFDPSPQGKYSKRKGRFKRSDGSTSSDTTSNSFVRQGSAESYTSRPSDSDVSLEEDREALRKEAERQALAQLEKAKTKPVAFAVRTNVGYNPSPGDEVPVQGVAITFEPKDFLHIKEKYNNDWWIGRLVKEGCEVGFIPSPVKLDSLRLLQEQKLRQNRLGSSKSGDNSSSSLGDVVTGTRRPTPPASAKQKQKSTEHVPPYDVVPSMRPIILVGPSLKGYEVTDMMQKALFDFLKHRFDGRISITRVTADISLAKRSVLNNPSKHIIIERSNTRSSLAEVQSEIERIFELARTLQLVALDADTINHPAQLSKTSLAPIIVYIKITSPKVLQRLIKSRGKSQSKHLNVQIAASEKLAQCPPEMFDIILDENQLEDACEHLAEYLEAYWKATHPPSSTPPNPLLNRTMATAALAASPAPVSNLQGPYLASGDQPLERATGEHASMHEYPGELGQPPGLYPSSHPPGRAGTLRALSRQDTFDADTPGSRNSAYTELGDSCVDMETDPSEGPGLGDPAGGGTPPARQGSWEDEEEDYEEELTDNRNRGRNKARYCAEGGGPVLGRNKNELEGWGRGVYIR

[5] = molecular target: T1, Venus-tagged β1b[NK-CT] (Rattus norvegicus (assumed), UniProt P54283); assay: FRET or BRET; flow cytometry FRET (flow-FRET) in HEK293 cells co-expressing Cerulean-nb.E8 and Venus-tagged β1b modules or β1b/β3 chimeras; 1:1 binding model; effective dissociation constant (Kd,EFF)
T1 construct: CaVβ1b module of the NK domain and the C-terminus; the text says the module was tagged with Cerulean; source: HEK293, co-expressed, in cells
T1 sequence (P54283 whole entry, looked up, the tested form may be a part): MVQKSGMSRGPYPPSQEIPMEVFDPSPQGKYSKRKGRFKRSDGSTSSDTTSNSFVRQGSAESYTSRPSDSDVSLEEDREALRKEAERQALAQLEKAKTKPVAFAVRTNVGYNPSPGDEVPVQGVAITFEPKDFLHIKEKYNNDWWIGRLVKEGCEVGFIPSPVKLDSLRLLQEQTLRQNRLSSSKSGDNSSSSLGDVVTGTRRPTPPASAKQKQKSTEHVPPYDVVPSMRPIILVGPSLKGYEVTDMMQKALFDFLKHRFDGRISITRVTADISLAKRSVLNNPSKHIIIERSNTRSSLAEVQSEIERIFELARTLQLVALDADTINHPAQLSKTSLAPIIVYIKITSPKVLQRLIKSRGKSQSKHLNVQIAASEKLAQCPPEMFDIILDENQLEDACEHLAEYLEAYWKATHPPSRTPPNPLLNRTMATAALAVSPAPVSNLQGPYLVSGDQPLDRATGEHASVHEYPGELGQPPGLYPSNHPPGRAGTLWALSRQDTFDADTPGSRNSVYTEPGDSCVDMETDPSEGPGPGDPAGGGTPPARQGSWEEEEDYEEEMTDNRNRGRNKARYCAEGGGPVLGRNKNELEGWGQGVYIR

Row | Binder | binding result [1] | binding result [2] | binding result [3] | binding result [4] | binding result [5]
1 | Venus-nb.E8 (VHH, llama nanobody nb.E8 from a phage display library; The methods say the nanobodies were cloned upstream of a Venus marker (pCDNA3.1), while the name Venus-nb.E8 puts the tag first; also called Venus-tagged nb.E8; source: HEK293, transiently co-transfected, in cells; not shown: Venus, C-terminal, kept) VHH: QVQLQESGGGSVQAGGSLRLSCAASGRTFSKNAMGWFRQAPGKEREFVVAISWSGRNTYYADSVKGRFTISRDNAKNTVDLQMNSLKPEDSAVYYCAVGGDWRVYDISFYYTAHQYEYWGQGTQVTVSS | no binding | no binding | no binding | binds | 
2 | Cerulean-nb.E8 (VHH, the text of the results says that the CaVβ1 modules carried Cerulean; source: HEK293, co-expressed, in cells) VHH: QVQLQESGGGSVQAGGSLRLSCAASGRTFSKNAMGWFRQAPGKEREFVVAISWSGRNTYYADSVKGRFTISRDNAKNTVDLQMNSLKPEDSAVYYCAVGGDWRVYDISFYYTAHQYEYWGQGTQVTVSS |  |  |  |  | no binding
3 | Venus-nb.F3 (VHH, llama nanobody nb.F3 from a phage display library; The methods say the nanobodies were cloned upstream of a Venus marker (pCDNA3.1), while the name Venus-nb.F3 puts the tag first; also called Venus-tagged nb.F3; source: HEK293, transiently co-transfected, in cells; not shown: Venus, C-terminal, kept) VHH: QVQLQESGGGLVQAGGSLRLSCVASGRTFSSYAMGWFRQAPGKEREFVAAIDWSGGTASHADSVKGRFTISRDNAKNTVYLQMNSLKPEDTAVYYCAASSYWSRSVDEYDYWGQGTQVTVSS | binds | binds | binds | binds | 
